Experimental data from PMC8152229, “Structural and Functional Peculiarities of Cytoplasmic Tropomyosin Isoforms, the Products of TPM1 and TPM4 Genes” (International Journal of Molecular Sciences, 2021).

B1: Tropomyosin isoform Tpm4.2 (natural protein)
chain: not shown
notes: cytoplasmic LMW isoform Tpm4.2 of the TPM4 gene (~247 residues), exons 1b, 9d; an N-terminal extension is stated only for the HMW isoforms; source: E. coli C41(DE3), purified (anion exchange, HiTrap QHP); reduced with DTT before experiments
B2: Tropomyosin isoform Tpm1.7 with Ala-Ser N-terminal extension (natural protein)
chain: not shown
notes: Ala-Ser N-terminal extension that mimics natural N-terminal acetylation; cytoplasmic HMW isoform Tpm1.7 of the TPM1 gene (~284 residues), exons 1a2b, 6a, 9d; Alpha-helical coiled-coil dimer; source: E. coli C41(DE3), purified (anion exchange, HiTrap QHP)
B3: Tropomyosin isoform Tpm1.12 (natural protein)
chain: not shown
notes: cytoplasmic LMW isoform Tpm1.12 of the TPM1 gene (~247 residues; exon 9c three residues shorter than 9d), exons 1b, 9c; has Cys-154; no N-terminal extension; source: E. coli C41(DE3), purified (anion exchange, HiTrap QHP); reduced with DTT before experiments

biological target: F-actin from rabbit skeletal muscle, stabilised by phalloidin (rabbit, UniProt P68135 1-377); experiment: co-sedimentation; 10 uM phalloidin-stabilized F-actin mixed with increasing Tpm (0 to 5.5-6 uM; up to almost 40 uM for Tpm1.12); 30 mM Hepes-Na pH 7.3, 200 mM NaCl; 40 min at 25 °C; 100,000 x g for 40 min; SDS-PAGE of pellet and supernatant; K50% = Tpm concentration at which actin is half-saturated; conditions: both partners purified

Row | K50% [µM] | Binder
1 | 1.07 | B1
2 | 0.4 | B2
3 | 14.9 | B3
